Source: US11278600B2, “Human alpha-galactosidase variants” (Codexis, Inc., priority 2014, dated 2022)

Assays:
Type in all cases: biochemical
[1] = HTP-analysis of yeast culture supernatants, no challenge (MUGal hydrolysis); details: yeast culture supernatant
Procedure, shortened: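 Activity read as 4-methylumbelliferyl α-D-galactopyranoside hydrolysis: fluorescence (355/448 nm) after sodium carbonate stop, following 30-180 min at 37° C with 2 mM MUGal stock at pH 4.6–4.8. Enzyme source is unchallenged culture supernatant of INVSc1 yeast expressing GLA variants, grown 66-84 h at 30° C.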

[2] = HTP-analysis of supernatants pretreated with bovine serum (MUGal hydrolysis); details: yeast culture supernatant
Procedure, shortened: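 Yeast INVSc1 culture supernatants containing secreted GLA variants were mixed with bovine serum (20:80) and held 1 h at 37° C. Serum-treated samples then reacted with MUGal (4 mM stock) in citrate/McIlvaine buffer (pH 4.3/4.8) for 180 min at 37° C., were quenched with sodium carbonate, and read by fluorescence (Ex 355, Em 448 nm).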

[3] = HTP-analysis of supernatants pretreated with acid (MUGal hydrolysis); details: yeast culture supernatant; for Relative Activity of GLA Variants After Challenge at pH 4.2: activity of the variant/activity of Rd2BB (SEQ ID NO: 10); for Relative Activity of GLA Variants After Challenge at pH 4.0: activity of the variant/activity of Rd3BB (SEQ ID NO: 13)
Procedure, shortened: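 GLA variants were secreted from INVSc1 yeast grown 66-84 h at 30° C. in SD-Ura with 2% glucose; supernatants were mixed with McIlvaine buffer pH 3.3-4.3 and held at 37° C. for 1-3 h. Residual activity on MUGal at pH 4.8 was then measured by fluorescence.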

[4] = HTP-analysis of supernatants pretreated with base (MUGal hydrolysis); details: yeast culture supernatant; for Relative Activity of GLA Variants After Challenge at pH 7.6: activity of the variant/activity of Rd2BB (SEQ ID NO: 10); for Relative Activity of GLA Variants After Challenge at pH 8.2: activity of the variant/activity of Rd3BB (SEQ ID NO: 13)
Procedure, shortened: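 Supernatants from INVSc1 yeast expressing GLA variants (SD-Ura, 66-84 h, 30° C) were mixed with McIlvaine buffer pH 7.0-8.2 or 200 mM sodium bicarbonate pH 9.1-9.7 and held 1-18 h at 37° C. Residual activity was then measured on MUGal at pH 4.8/4.3, 37° C, 30-180 min, by fluorescence (Ex 355/Em 448 nm).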

[5] = activity of the variant/activity of Rd2BB (SEQ ID NO: 10)
[6] = activity of the variant/activity of Rd3BB (SEQ ID NO: 13)

Row | Molecule | Relative Activity of GLA Variants After No Challenge (NC) [1, 5] | Relative Activity of GLA Variants After Challenge with Serum [2, 5] | Relative Activity of GLA Variants After Challenge at pH 4.2 [3] | Relative Activity of GLA Variants After Challenge at pH 7.6 [4] | Relative Activity of GLA Variants After No Challenge (NC) [1, 6] | Relative Activity of GLA Variants After Challenge with Serum [2, 6] | Relative Activity of GLA Variants After Challenge at pH 4.0 [3] | Relative Activity of GLA Variants After Challenge at pH 8.2 [4]
1 | 295 (protein, Synthetic Polypeptide sequence of Variant No. 295 of mature Human GLA) LDNGLARTPTMGWLHWERFMCNLDCQEEPDSCISEKLFMEMAERMVSEGWKDAGYEYLCIDDCWMAPQRDSEGRLQADPQRFPHGIRQLANYVHSKGLKFGIYADVGNKTCAGFPGSFGYYDIDAQTFADWGVDLLKFDGCYCDSLENLADGYKHMSLALNRTGRSIVYSCEWPLYMWPFQKPNYTEIRQYCNHWRNFADIDDSWASVKSILDWTSFNQETIVDVAGPGGWNDPDMLVIGNFGLSWDQQVTQMALWAIMAAPLFMSNDLRHISPQAKALLQDKDVIAINQDPLGKQGYQLRKGDNFEVWERPLSGLAWAVAIINRQEIGGPRSYTIAVASLGKGVACNPACFITQLLPVKRKLGLYEWTSRLKSHVNPTGTVLLQLENTMQMSLKDLL | +++ (+++ = >2.5 relative activity over Rd2BB (SEQ ID NO: 10)) | +++ (+++ = >2.5 relative activity over Rd2BB (SEQ ID NO: 10)) | +++ (+++ = >2.5 relative activity over Rd2BB (SEQ ID NO: 10)) | +++ (+++ = >2.5 relative activity over Rd2BB (SEQ ID NO: 10)) | – | – | – | –
2 | 300 (protein, Synthetic Polypeptide sequence of Variant No. 300 of mature Human GLA) LDNGLARTPTMGWLHWERFMCNLDCQEEPDSCISEKLFMEMAELMVSEGWKDAGYEYLCIDDCWMAPQRDSEGRLQADPQRFPHGIRQLANYVHSKGLKLGIYADVGNKTCAGFPGSFGYYDIDAQTFADWGVDLLKFDGCYCDSLENLADGYKHMSLALNRTGRSIVYSCEWPLYMWPFQKPNYTEIRQYCNHWRNFADIDDSWASVKSILDWTSFNQETIVDVAGPGGWNDPDMLVIGNFGLSWDQQVTQMALWAIMAAPLFMSNDLRHISPQAKALLQDKDVIAINQDPLGKQGYQLRQGDNFEVWERPLSGLAWAVAVINRQEIGGPRSYTIAVASLGGGVACNPACFITQLLPVKRKLGFYNWTSRLKSHINPTGTVLLQLENTMQMSLKDLL | – | – | – | – | + (+ = 0.5 to 1.5 relative activity over Rd3BB (SEQ ID NO: 13)) | ++ (++ = >1.5 to 2.5 relative activity over Rd3BB (SEQ ID NO: 13)) | ++ (++ = >1.5 to 2.5 relative activity over Rd3BB (SEQ ID NO: 13)) | ++ (++ = >1.5 to 2.5 relative activity over Rd3BB (SEQ ID NO: 13))
3 | 301 (protein, Synthetic Polypeptide sequence of Variant No. 301 of mature Human GLA) LDNGLARTPTMGWLHWERFMCNLDCQEEPDSCISEKLFMEMAELMVSEGWKDAGYEYLCIDDCWMAPQRDSEGRLQADPQRFPHGIRQLANYVHSKGLKLGIYADVGNKTCAGFPGSFGYYDIDAQTFADWGVDLLKFDGCYCDSLENLADGYKHMSLALNRTGRSIVYSCEWPLYMWPFQKPNYTEIRQYCNHWRNFADIDDSWASIKSILDWTSFNQERIVDVAGPGGWNDPDMLVIGNFGLSWNQQVTQMALWAIMAAPLFMSNDLRHISPQAKALLQDKDVIAINQDPLGKQGYQLRQGDNFEVWERPLSGLAWAVAIINRQEIGGPRSYTIAVASLGKGVACNPACFITQLLPVKRKLGFYNWTSRLKSHINPTGTVLLQLENTMQMSLKDLL | – | – | – | – | + (+ = 0.5 to 1.5 relative activity over Rd3BB (SEQ ID NO: 13)) | − (− = <0.5 relative activity to Rd3BB (SEQ ID NO: 13)) | + (+ = 0.5 to 1.5 relative activity over Rd3BB (SEQ ID NO: 13)) | + (+ = 0.5 to 1.5 relative activity over Rd3BB (SEQ ID NO: 13))
4 | 233 (protein, Synthetic Polypeptide sequence of Variant No. 233 of mature Human GLA) LDNGLARTPTMGWLHWERFMCNLDCQEEPDSCISEKLFMEMAELMVSEGWKDAGYEYLCIDDCWMAPQRDSEGRLQADPQRFPHGIRQLANYVHSKGLKLGIYADVGNKTCAGFPGSFGYYDIDAQTFADWGVDLLKFDGCYCDSLENLADGYKHMSLALNRTGRSIVYSCEWPLYMWPFQKPNYTEIRQYCNHWRNFADIDDSWASIKSILDWTSRNQERIVDVAGPGGWNDPDMLVIGNFGLSWDQQVTQMALWAIMAAPLFMSNDLRHISPQAKALLQDKDVIAINQDPLGKQGYQLRQGDNFEVWERPLSGDAWAVAMINRQEIGGPRSYTIAVASLGKGVACNPGCFITQLLPVKRKLGFYDWDSRLRSHINPTGTVLLQLENTMQMSLKDLL | +++ (+++ = >2.5 relative activity over Rd2BB (SEQ ID NO: 10)) | +++ (+++ = >2.5 relative activity over Rd2BB (SEQ ID NO: 10)) | +++ (+++ = >2.5 relative activity over Rd2BB (SEQ ID NO: 10)) | +++ (+++ = >2.5 relative activity over Rd2BB (SEQ ID NO: 10)) | – | – | – | –
5 | 235 (protein, Synthetic Polypeptide sequence of Variant No. 235 of mature Human GLA) LDNGLARTPTMGWLHWERFMCNLDCQEEPDSCISEKLFMEMAELMVSEGWKDAGYEYLCIDDCWMAPQRDSEGRLQADPQRFPHGIRQLANYVHSKGLKLGIYADVGNKTCAGFPGSFGYYDIDAQTFADWGVDLLKFDGCYCDSLENLADGYKHMSLALNRTGRSIVYSCEWPLYMWPFQKPNYTEIRQYCNHWRNFADIDDSWASIKSILDWTSRNQERIVDVAGPGGWNDPDMLVIGNFGLSWDQQVTQMALWAIMAAPLFMSNDLRHISPQAKALLQDKDVIAINQDPLGKQGYQLRKGDNFEVWERPLSGDAWAVAMINRQEIGGPRSYTIPVASLGKGVACNPGCFITQLLPVKRKLGFYDWDSRLRSHINPTGTVLLQLENTMQMSLKDLL | +++ (+++ = >2.5 relative activity over Rd2BB (SEQ ID NO: 10)) | +++ (+++ = >2.5 relative activity over Rd2BB (SEQ ID NO: 10)) | +++ (+++ = >2.5 relative activity over Rd2BB (SEQ ID NO: 10)) | +++ (+++ = >2.5 relative activity over Rd2BB (SEQ ID NO: 10)) | – | – | – | –
6 | 234 (protein, Synthetic Polypeptide sequence of Variant No. 234 of mature Human GLA) LDNGLARTPTMGWLHWERFMCNLDCQEEPDSCISEKLFMEMAELMVSEGWKDAGYEYLCIDDCWMAPQRDSEGRLQADPQRFPHGIRQLANYVHSKGLKLGIYADVGNKTCAGFPGSFGYYDIDAQTFADWGVDLLKFDGCYCDSLENLADGYKHMSLALNRTGRSIVYSCEWPLYMWPFQKPNYTEIRQYCNHWRNFADIDDSWASIKSILDWTSRNQERIVDVAGPGGWNDPDMLVIGNFGLSWDQQVTQMALWAIMAAPLFMSNDLRHISPQAKALLQDKDVIAINQDPLGKQGYQLRKGDNFEVWERPLSGLAWAVAMINRQEIGGPRSYTIAVASLGKGVACNPGCFITQLLPVKRKLGFYDWDSRLRSHINPTGTVLLQLENTMQMSLKDLL | +++ (+++ = >2.5 relative activity over Rd2BB (SEQ ID NO: 10)) | +++ (+++ = >2.5 relative activity over Rd2BB (SEQ ID NO: 10)) | +++ (+++ = >2.5 relative activity over Rd2BB (SEQ ID NO: 10)) | +++ (+++ = >2.5 relative activity over Rd2BB (SEQ ID NO: 10)) | – | – | – | –
7 | 236 (protein, Synthetic Polypeptide sequence of Variant No. 236 of mature Human GLA) LDNGLARTPTMGWLHWERFMCNLDCQEEPDSCISEKLFMEMAELMVSEGWKDAGYEYLCIDDCWMAPQRDSEGRLQADPQRFPHGIRQLANYVHSKGLKLGIYADVGNKTCAGFPGSFGYYDIDAQTFADWGVDLLKFDGCYCDSLENLADGYKHMSLALNRTGRSIVYSCEWPLYMWPFQKPNYTEIRQYCNHWRNFADIDDSWASIKSILDWTSRNQERIVDVAGPGGWNDPDMLVIGNFGLSWNQQVTQMALWAIMAAPLFMSNDLRHISPQAKALLQDKDVIAINQDPLGKQGYQLRKGDNFEVWERPLSGLAWAVAMINRQEIGGPRSYTIAVASLGKGVACNPACFITQLLPVKRKLGFYDWDSRLRSHINPTGTVLLQLENTMQMSLKDLL | +++ (+++ = >2.5 relative activity over Rd2BB (SEQ ID NO: 10)) | ++ (++ = 1.5 to 2.5 relative activity over Rd2BB (SEQ ID NO: 10)) | ++ (++ = 1.5 to 2.5 relative activity over Rd2BB (SEQ ID NO: 10)) | +++ (+++ = >2.5 relative activity over Rd2BB (SEQ ID NO: 10)) | – | – | – | –
